Measurements: the supplement of paper PMC10724198
± gives the standard deviation of the averaged measurements.

Columns and labels:
[1] = system: Saccharomyces cerevisiae; experiment: protein stability index of tFT-peptide fusion (C-terminal peptide) (PSI (0-1 scale)); higher = more stable (slower turnover)
Procedure: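 MPS profiling in S. cerevisiae of the tFT-X12 degron library: putative degron peptides plus stable controls, 12 aa, fused to the C-terminus of a sfGFP-mCherry timer. Cells are FACS-sorted into 8 mCherry/sfGFP bins and deep-sequenced. PSI runs from 0 (unstable) to 1 (stable). Backgrounds are wild type, das1Δ and doa10Δ at 30 °C, and wild type, das1Δ, cdc34-1 and cdc53-1 at 37 °C; 2-3 technical replicates each.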

[2] = system: Saccharomyces cerevisiae; experiment: as above; settings: genetic background: wild type; temperature: 30 C
[3] = genetic background: cdc34-1, temperature: 37 C
[4] = genetic background: cdc53-1, temperature: 37 C
[5] = genetic background: das1 deletion, temperature: 30 C
[6] = genetic background: das1 deletion, temperature: 37 C
[7] = genetic background: doa10 deletion, temperature: 30 C
[8] = genetic background: wild type, temperature: 30 C
[9] = genetic background: wild type, temperature: 37 C
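Note: PSI is a weighted mean of sequencing reads over stability bins, variants kept only with over 10 reads, mCherry proximal and sfGFP distal, peptide attached via GGGS linker.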

Sequence | protein stability index [1, 3] | protein stability index [1, 4] | protein stability index [1, 5] | protein stability index [1, 6] | protein stability index [1, 7] | protein stability index [1, 8] | protein stability index [1, 9] | protein stability index [2]
LLLSLYFCFIFF | 0.207 ± 0.025 | 0.152 ± 0.004 | 0.245 ± 0.035 | 0.332 ± 0.018 | 0.337 ± 0.0086 | 0.226 ± 0.022 | 0.309 ± 0.033 | 0.329 ± 0.074
LLLSSILLILSS | 0.357 ± 0.033 | 0.409 ± 0.0057 | 0.29 ± 0.018 | 0.465 ± 0.023 | 0.2369 ± 0.00081 | 0.272 ± 0.024 | 0.459 ± 0.063 | 0.34 ± 0.019
LLPLLLFFSLLR | 0.223 ± 0.019 | 0.158 ± 0.02 | 0.34 ± 0.034 | 0.4062 ± 0.0013 | 0.601 ± 0.05 | 0.318 ± 0.034 | 0.373 ± 0.04 | 0.466 ± 0.03
LLPLSLSLLLSV | 0.52 ± 0.015 | 0.541 ± 0.0062 | 0.432 ± 0.023 | 0.5638 ± 0.0033 | 0.414 ± 0.0064 | 0.429 ± 0.021 | 0.53568 ± 0.00041 | 0.453 ± 0.023
LLSAVAHCYFIA | 0.595 ± 0.034 | 0.713 ± 0.0051 | 0.611 ± 0.01 | 0.738 ± 0.01 | 0.178 ± 0.013 | 0.191 ± 0.021 | 0.29 ± 0.02 | 0.297 ± 0.019
LLSLTLALPLAA | 0.392 ± 0.0064 | 0.434 ± 0.014 | 0.337 ± 0.034 | 0.461 ± 0.0074 | 0.296 ± 0.0033 | 0.349 ± 0.022 | 0.4518 ± 0.0011 | 0.455 ± 0.047
LLVFSSPPPAKF | 0.91 ± 0.036 | 0.901 ± 0.018 | 0.799 ± 0.055 | 0.833 ± 0.025 | 0.808 ± 0.023 | 0.769 ± 0.026 | 0.869 ± 0.024 | 0.81 ± 0.023
LLVSCPLVLRFR | 0.426 ± 0.048 | 0.41 ± 0.02 | 0.437 ± 0.01 | 0.576 ± 0.058 | 0.6177 ± 0.0033 | 0.431 ± 0.028 | 0.511 ± 0.012 | 0.53 ± 0.048
LLYSLVALGVCV | 0.329 ± 0.0041 | 0.314 ± 0.011 | 0.28 ± 0.032 | 0.403 ± 0.0012 | 0.24309 ± 0.00016 | 0.277 ± 0.019 | 0.3667 ± 0.0013 | 0.3805 ± 0.0005
LMFCPPLLRVAL | 0.44 ± 0.023 | 0.4421 ± 0.0031 | 0.372 ± 0.03 | 0.526 ± 0.015 | 0.399 ± 0.026 | 0.392 ± 0.018 | 0.473 ± 0.0086 | 0.485 ± 0.013
LMFSRSLFIVKC | 0.435 ± 0.035 | 0.438 ± 0.051 | 0.36 ± 0.038 | 0.514 ± 0.018 | 0.168 ± 0.0054 | 0.178 ± 0.025 | 0.343 ± 0.037 | 0.295 ± 0.043
LMPYIIFLMSFQ | 0.458 ± 0.026 | 0.496 ± 0.017 | 0.351 ± 0.027 | 0.5408 ± 0.0045 | 0.335 ± 0.028 | 0.347 ± 0.0081 | 0.498 ± 0.042 | 0.418 ± 0.014
LPPSVLPLPPSH | 0.647 ± 0.053 | 0.72 ± 0.013 | 0.658 ± 0.015 | 0.73 ± 0.024 | 0.6756 ± 0.0016 | 0.679 ± 0.033 | 0.752 ± 0.053 | 0.729 ± 0.021
LPPVPLRLTLVL | 0.448 ± 0.0077 | 0.474 ± 0.031 | 0.353 ± 0.026 | 0.503 ± 0.005 | 0.3197 ± 0.0027 | 0.359 ± 0.024 | 0.477 ± 0.0054 | 0.4414 ± 0.00093
LPRDPLHAQIAS | 0.647 ± 0.019 | 0.696 ± 0.0026 | 0.645 ± 0.019 | 0.6959 ± 0.0017 | 0.223 ± 0.0072 | 0.257 ± 0.031 | 0.516 ± 0.036 | 0.384 ± 0.069
LQFSLPCFLLIF | 0.145 ± 0.0042 | 0.134 ± 0.022 | 0.205 ± 0.019 | 0.253 ± 0.0062 | 0.211 ± 0.0099 | 0.159 ± 0.015 | 0.208 ± 0.019 | 0.221 ± 0.033
LQLRKQILLLMT | 0.348 ± 0.022 | 0.36 ± 0.011 | 0.299 ± 0.022 | 0.432 ± 0.005 | 0.169 ± 0.019 | 0.195 ± 0.013 | 0.233 ± 0.034 | 0.299 ± 0.025
LQSVLRGIDCCA | 0.347 ± 0.0089 | 0.375 ± 0.016 | 0.252 ± 0.053 | 0.467 ± 0.0052 | 0.214 ± 0.0044 | 0.266 ± 0.018 | 0.4341 ± 0.0029 | 0.411 ± 0.085
LRCIFVVVSFTP | 0.0799 ± 0.045 | 0.2 ± 0.025 | 0.172 ± 0.035 | 0.305 ± 0.014 | 0.129 ± 0.0095 | 0.153 ± 0.035 | 0.25 ± 0.0035 | 0.291 ± 0.15
LRCLAIFLYRAF | 0.576 ± 0.045 | 0.6238 ± 0.0039 | 0.49 ± 0.02 | 0.644 ± 0.015 | 0.399 ± 0.013 | 0.404 ± 0.02 | 0.563 ± 0.015 | 0.466 ± 0.013

Sequence | protein stability index [1, 3] | protein stability index [1, 4] | protein stability index [1, 5] | protein stability index [1, 6] | protein stability index [1, 7] | protein stability index [1, 8] | protein stability index [1, 9] | protein stability index [2]
LRRQAFRYRTLL | 0.458 ± 0.037 | 0.552 ± 0.031 | 0.569 ± 0.021 | 0.566 ± 0.006 | 0.1668 ± 0.0014 | 0.19 ± 0.0052 | 0.2454 ± 0.00035 | 0.221 ± 0.0096
LRTLVFIWFMYV | 0.296 ± 0.045 | 0.481 ± 0.058 | 0.273 ± 0.035 | 0.4851 ± 0.0041 | 0.126 ± 0.0092 | 0.143 ± 0.024 | 0.2612 ± 0.00061 | 0.19 ± 0.067
LRTYSFTIGTLC | 0.616 ± 0.052 | 0.637 ± 0.027 | 0.471 ± 0.024 | 0.6402 ± 0.0061 | 0.241 ± 0.027 | 0.279 ± 0.035 | 0.492 ± 0.015 | 0.385 ± 0.012
LSALMVLSFILV | 0.377 ± 0.016 | 0.4332 ± 0.0036 | 0.379 ± 0.024 | 0.4573 ± 0.00059 | 0.343 ± 0.011 | 0.355 ± 0.028 | 0.428 ± 0.0022 | 0.418 ± 0.033
LSFRLSYPLPIY | 0.418 ± 0.017 | 0.47 ± 0.025 | 0.352 ± 0.034 | 0.5403 ± 0.0029 | 0.1 ± 0.013 | 0.108 ± 0.0014 | 0.132 ± 0.0069 | 0.178 ± 0.032
LSIALPFPVLCR | 0.0213 ± 0.0045 | 0.038 ± 0.03 | 0.115 ± 0.019 | 0.091924 ± 4.9e-05 | 0.0844 ± 0.017 | 0.0877 ± 0.025 | 0.0459 ± 0.011 | 0.134 ± 0.012
LSITQLFCLCAV | 0.317 ± 0.0048 | 0.337 ± 0.02 | 0.289 ± 0.031 | 0.4 ± 0.0069 | 0.2322 ± 0.0017 | 0.272 ± 0.016 | 0.356 ± 0.006 | 0.3742 ± 0.0031
LSLSLQVVVFSM | 0.438 ± 0.034 | 0.497 ± 0.022 | 0.317 ± 0.024 | 0.484 ± 0.0062 | 0.3203 ± 0.00038 | 0.322 ± 0.021 | 0.457 ± 0.022 | 0.467 ± 0.022
LSPYPLTFLFSQ | 0.693 ± 0.07 | 0.7506 ± 0.0056 | 0.648 ± 0.014 | 0.742 ± 0.0096 | 0.365 ± 0.014 | 0.393 ± 0.043 | 0.61752 ± 0.00015 | 0.51 ± 0.042
LSWWCFLVLLHW | 0.172 ± 0.0081 | 0.14 ± 0.044 | 0.232 ± 0.026 | 0.323 ± 0.021 | 0.262 ± 0.017 | 0.202 ± 0.016 | 0.268 ± 0.012 | 0.302 ± 0.094
LTPKRLTVCRLC | 0.553 ± 0.066 | 0.758 ± 0.012 | 0.688 ± 0.01 | 0.7862 ± 0.0057 | 0.306 ± 0.019 | 0.318 ± 0.008 | 0.628 ± 0.066 | 0.512 ± 0.079
LVACLGYAVYCL | 0.529 ± 0.042 | 0.557 ± 0.03 | 0.402 ± 0.024 | 0.573 ± 0.0087 | 0.369 ± 0.015 | 0.394 ± 0.017 | 0.5568 ± 0.0018 | 0.46 ± 0.012
LVCFFLFSLFYL | 0.433 ± 0.02 | 0.479 ± 0.018 | 0.335 ± 0.028 | 0.5331 ± 0.0039 | 0.357 ± 0.015 | 0.358 ± 0.029 | 0.5098 ± 0.0013 | 0.386 ± 0.037
LVFCFRSLFLCS | 0.57 ± 0.057 | 0.603 ± 0.0097 | 0.542 ± 0.012 | 0.6784 ± 0.0048 | 0.254 ± 0.014 | 0.243 ± 0.019 | 0.39121 ± 0.00016 | 0.34 ± 0.022
LVFRIRNANRLV | 0.615 ± 0.046 | 0.7144 ± 0.0041 | 0.6418 ± 0.0024 | 0.728 ± 0.024 | 0.127 ± 0.015 | 0.164 ± 0.026 | 0.314 ± 0.03 | 0.309 ± 0.014
LVFSVIPVLFVL | 0.454 ± 0.011 | 0.474 ± 0.025 | 0.355 ± 0.015 | 0.528 ± 0.017 | 0.328 ± 0.015 | 0.318 ± 0.022 | 0.461 ± 0.027 | 0.419 ± 0.087
LVGTRTIFCFLH | 0.618 ± 0.017 | 0.721 ± 0.0084 | 0.57 ± 0.018 | 0.741 ± 0.027 | 0.207 ± 0.0076 | 0.218 ± 0.026 | 0.401 ± 0.0054 | 0.3164 ± 0.002
LVGWSWAACWLA | 0.522 ± 0.057 | 0.608 ± 0.029 | 0.58 ± 0.024 | 0.712 ± 0.019 | 0.292 | 0.298 ± 0.012 | 0.396 ± 0.012 | 0.408 ± 0.016
LVILRCAFPVYG | 0.469 ± 0.011 | 0.529 ± 0.0084 | 0.339 ± 0.03 | 0.538 ± 0.009 | 0.298 ± 0.014 | 0.332 ± 0.043 | 0.51345 ± 9.4e-05 | 0.3963 ± 0.00083
